Here are results for one molecule from PMC11065751.

Where “and” joins values, the source holds several entries; their conditions need not be identical. Identical values can stand only once.

For test [1], the target named is Vangl2-Long (70 kD isoform), endogenous mouse (mouse (endogenous in IMCD3)). As to the kind of experiment: co-IP; serial IP of endogenous proteins from IMCD3 cell extracts: two successive rounds of IP with N-VGL2 pAb, then IP of the Vangl2-Long depleted lysate with a Vangl1-specific antibody.
For test [2] the target is unchanged. The test can be described thus: co-IP; endogenous proteins; SKBR7 or IMCD3 cell lysates (50 mM Hepes-NaOH pH 8, 150 mM NaCl, 10% glycerol, 2 mM EDTA, 0.5% NP-40) incubated overnight at 4 °C with N-VGL2 pAb (VANGL2-Long specific) or mAb 36E3, protein A or G beads; blots with mAb 36E3 and mAb 19D5; 62 kD and 70 kD bands quantified for the ratio.

B1: Vangl2 (canonical 62 kD isoform), endogenous mouse (natural protein)
chain: MDTESQYSGYSYKSGHSRSSRKHRDRRDRHRSKSRDGSRGDKSVTIQAPGEPLLDNESTRGDERDDNWGETTTVVTGTSEHSISHDDLTRIAKDMEDSVPLDCSRHLGVAAGAILALLSFLTPLAFLLLPPLLWREELEPCGTACEGLFISVAFKLLILLLGSWALFFRRPKASLPRVFVLRALLMVLVFLLVISYWLFYGVRILDARERSYQGVVQFAVSLVDALLFVHYLAVVLLELRQLQPQFTLKVVRSTDGASRFYNVGHLSIQRVAVWILEKYYHDFPVYNPALLNLPKSVLAKKVSGFKVYSLGEENSTNNSTGQSRAVIAAAARRRDNSHNEYYYEEAEHERRVRKRRARLVVAVEEAFTHIKRLQEEEQKNPREVMDPREAAQAIFASMARAMQKYLRTTKQQPYHTMESILQHLEFCITHDMTPKAFLERYLAAGPTIQYHKERWLAKQWTLVSEEPVTNGLKDGIVFLLKRQDFSLVVSTKKVPFFKLSEEFVDPKSHKFVMRLQSETSV
On to B1, for which, in test [1], the percent of Vangl2 depleted by IP of Vangl2-Long was 50%. The stoichiometry N (Vangl2 per Vangl2-Long) in test [2] is 3 and 4.
